Starred links: 1 amine or outer side, 2 acyl side, 3 side chain; linkers in the order of their positions; H or OH if unused. Positions of bridges follow the written chain, without caps; N, C: chain ends. Non-standard residues stand in square brackets, D forms with d. No end group written: not given here. TATA = O=C(CC[*:1])N1CN(C(=O)CC[*:2])CN(C(=O)CC[*:3])C1; Phe(4-guanidino) = N=C(N)Nc1ccc(C[C@H](N)C(=O)O)cc1; Bta = N[C@@H](Cc1csc2ccccc12)C(=O)O; hArg = N=C(N)NCCCC[C@H](N)C(=O)O; Agb = N=C(N)NCC[C@H](N)C(=O)O; hLys = NCCCCC[C@H](N)C(=O)O
B1: peptide 5 (peptide 2, Phe3 to leucine) (peptide)
peptide: RCLRLPCRQLRCRW-NH2
modifications: linker 2-7-12 via TATA; N-terminus assumed
SMILES: CC(C)C[C@@H]1NC(=O)[C@H](CCC(N)=O)NC(=O)[C@H](CCCNC(=N)N)NC(=O)[C@@H]2CSCCC(=O)N3CN(CN(C3)C(=O)CCSC[C@H](NC(=O)[C@@H](N)CCCNC(=N)N)C(=O)N[C@@H](CC(C)C)C(=O)N[C@@H](CCCNC(=N)N)C(=O)N[C@@H](CC(C)C)C(=O)N3CCC[C@H]3C(=O)N2)C(=O)CCSC[C@@H](C(=O)N[C@@H](CCCNC(=N)N)C(=O)N[C@@H](Cc2c[nH]c3ccccc23)C(N)=O)NC(=O)[C@H](CCCNC(=N)N)NC1=O
B2: peptide 4 (peptide 2, Phe3 to tyrosine) (peptide)
peptide: RCYRLPCRQLRCRW-NH2
modifications: linker 2-7-12 via TATA; N-terminus assumed
SMILES: CC(C)C[C@@H]1NC(=O)[C@H](CCC(N)=O)NC(=O)[C@H](CCCNC(=N)N)NC(=O)[C@@H]2CSCCC(=O)N3CN(CN(C3)C(=O)CCSC[C@H](NC(=O)[C@@H](N)CCCNC(=N)N)C(=O)N[C@@H](Cc3ccc(O)cc3)C(=O)N[C@@H](CCCNC(=N)N)C(=O)N[C@@H](CC(C)C)C(=O)N3CCC[C@H]3C(=O)N2)C(=O)CCSC[C@@H](C(=O)N[C@@H](CCCNC(=N)N)C(=O)N[C@@H](Cc2c[nH]c3ccccc23)C(N)=O)NC(=O)[C@H](CCCNC(=N)N)NC1=O
B3: peptide 8 (peptide 2, Phe3 to isoleucine) (peptide)
peptide: RCIRLPCRQLRCRW-NH2
modifications: linker 2-7-12 via TATA; N-terminus assumed
SMILES: CC[C@H](C)[C@@H]1NC(=O)[C@@H](NC(=O)[C@@H](N)CCCNC(=N)N)CSCCC(=O)N2CN3CN(C2)C(=O)CCSC[C@H](NC(=O)[C@@H]2CCCN2C(=O)[C@H](CC(C)C)NC(=O)[C@H](CCCNC(=N)N)NC1=O)C(=O)N[C@@H](CCCNC(=N)N)C(=O)N[C@@H](CCC(N)=O)C(=O)N[C@@H](CC(C)C)C(=O)N[C@@H](CCCNC(=N)N)C(=O)N[C@H](C(=O)N[C@@H](CCCNC(=N)N)C(=O)N[C@@H](Cc1c[nH]c2ccccc12)C(N)=O)CSCCC3=O
B4: peptide 7 (peptide 2, Phe3 to valine) (peptide)
peptide: RCVRLPCRQLRCRW-NH2
modifications: linker 2-7-12 via TATA; N-terminus assumed
SMILES: CC(C)C[C@@H]1NC(=O)[C@H](CCC(N)=O)NC(=O)[C@H](CCCNC(=N)N)NC(=O)[C@@H]2CSCCC(=O)N3CN(CN(C3)C(=O)CCSC[C@H](NC(=O)[C@@H](N)CCCNC(=N)N)C(=O)N[C@@H](C(C)C)C(=O)N[C@@H](CCCNC(=N)N)C(=O)N[C@@H](CC(C)C)C(=O)N3CCC[C@H]3C(=O)N2)C(=O)CCSC[C@@H](C(=O)N[C@@H](CCCNC(=N)N)C(=O)N[C@@H](Cc2c[nH]c3ccccc23)C(N)=O)NC(=O)[C@H](CCCNC(=N)N)NC1=O
B5: peptide 6 (peptide 2, Phe3 to alanine) (peptide)
peptide: RCARLPCRQLRCRW-NH2
modifications: linker 2-7-12 via TATA; N-terminus assumed
SMILES: CC(C)C[C@@H]1NC(=O)[C@H](CCC(N)=O)NC(=O)[C@H](CCCNC(=N)N)NC(=O)[C@@H]2CSCCC(=O)N3CN(CN(C3)C(=O)CCSC[C@H](NC(=O)[C@@H](N)CCCNC(=N)N)C(=O)N[C@@H](C)C(=O)N[C@@H](CCCNC(=N)N)C(=O)N[C@@H](CC(C)C)C(=O)N3CCC[C@H]3C(=O)N2)C(=O)CCSC[C@@H](C(=O)N[C@@H](CCCNC(=N)N)C(=O)N[C@@H](Cc2c[nH]c3ccccc23)C(N)=O)NC(=O)[C@H](CCCNC(=N)N)NC1=O
B6: peptide 41 (peptide 2, Arg4 to 4-guanidinophenylalanine) (peptide)
peptide: H-RCF[Phe(4-guanidino)]LPCRQLRCRW-NH2
modifications: linker 2-7-12 via TATA
SMILES: CC(C)C[C@@H]1NC(=O)[C@H](CCC(N)=O)NC(=O)[C@H](CCCNC(=N)N)NC(=O)[C@@H]2CSCCC(=O)N3CN(CN(C3)C(=O)CCSC[C@H](NC(=O)[C@@H](N)CCCNC(=N)N)C(=O)N[C@@H](Cc3ccccc3)C(=O)N[C@@H](Cc3ccc(NC(=N)N)cc3)C(=O)N[C@@H](CC(C)C)C(=O)N3CCC[C@H]3C(=O)N2)C(=O)CCSC[C@@H](C(=O)N[C@@H](CCCNC(=N)N)C(=O)N[C@@H](Cc2c[nH]c3ccccc23)C(N)=O)NC(=O)[C@H](CCCNC(=N)N)NC1=O
B7: peptide 26 (peptide 2, Leu10 to isoleucine) (peptide)
peptide: RCFRLPCRQIRCRW-NH2
modifications: linker 2-7-12 via TATA; N-terminus assumed
SMILES: CC[C@H](C)[C@@H]1NC(=O)[C@H](CCC(N)=O)NC(=O)[C@H](CCCNC(=N)N)NC(=O)[C@@H]2CSCCC(=O)N3CN(CN(C3)C(=O)CCSC[C@H](NC(=O)[C@@H](N)CCCNC(=N)N)C(=O)N[C@@H](Cc3ccccc3)C(=O)N[C@@H](CCCNC(=N)N)C(=O)N[C@@H](CC(C)C)C(=O)N3CCC[C@H]3C(=O)N2)C(=O)CCSC[C@@H](C(=O)N[C@@H](CCCNC(=N)N)C(=O)N[C@@H](Cc2c[nH]c3ccccc23)C(N)=O)NC(=O)[C@H](CCCNC(=N)N)NC1=O
B8: peptide 66 (FXII618, Arg1 to alanine) (peptide)
peptide: ACFRLPCRQLRCR-NH2
modifications: linker 2-7-12 via TATA; N-terminus assumed
SMILES: CC(C)C[C@@H]1NC(=O)[C@H](CCC(N)=O)NC(=O)[C@H](CCCNC(=N)N)NC(=O)[C@@H]2CSCCC(=O)N3CN(CN(C3)C(=O)CCSC[C@@H](C(=O)N[C@@H](CCCNC(=N)N)C(N)=O)NC(=O)[C@H](CCCNC(=N)N)NC1=O)C(=O)CCSC[C@H](NC(=O)[C@H](C)N)C(=O)N[C@@H](Cc1ccccc1)C(=O)N[C@@H](CCCNC(=N)N)C(=O)N[C@@H](CC(C)C)C(=O)N1CCC[C@H]1C(=O)N2
B9: FXII618 variant with R in position 1 replaced by homolysine (peptide)
peptide: [hLys]CFRLPCRQLRCR-NH2
modifications: linker 2-7-12 via TATA; N-terminus assumed
SMILES: CC(C)C[C@@H]1NC(=O)[C@H](CCC(N)=O)NC(=O)[C@H](CCCNC(=N)N)NC(=O)[C@@H]2CSCCC(=O)N3CN(CN(C3)C(=O)CCSC[C@H](NC(=O)[C@@H](N)CCCCCN)C(=O)N[C@@H](Cc3ccccc3)C(=O)N[C@@H](CCCNC(=N)N)C(=O)N[C@@H](CC(C)C)C(=O)N3CCC[C@H]3C(=O)N2)C(=O)CCSC[C@@H](C(=O)N[C@@H](CCCNC(=N)N)C(N)=O)NC(=O)[C@H](CCCNC(=N)N)NC1=O
B10: peptide 64 (FXII618, Arg1 to isoleucine) (peptide)
peptide: ICFRLPCRQLRCR-NH2
modifications: linker 2-7-12 via TATA; N-terminus assumed
SMILES: CC[C@H](C)[C@H](N)C(=O)N[C@H]1CSCCC(=O)N2CN3CN(C2)C(=O)CCSC[C@H](NC(=O)[C@@H]2CCCN2C(=O)[C@H](CC(C)C)NC(=O)[C@H](CCCNC(=N)N)NC(=O)[C@H](Cc2ccccc2)NC1=O)C(=O)N[C@@H](CCCNC(=N)N)C(=O)N[C@@H](CCC(N)=O)C(=O)N[C@@H](CC(C)C)C(=O)N[C@@H](CCCNC(=N)N)C(=O)N[C@H](C(=O)N[C@@H](CCCNC(=N)N)C(N)=O)CSCCC3=O
B11: peptide 65 (FXII618, Arg1 to valine) (peptide)
peptide: VCFRLPCRQLRCR-NH2
modifications: linker 2-7-12 via TATA; N-terminus assumed
SMILES: CC(C)C[C@@H]1NC(=O)[C@H](CCC(N)=O)NC(=O)[C@H](CCCNC(=N)N)NC(=O)[C@@H]2CSCCC(=O)N3CN(CN(C3)C(=O)CCSC[C@H](NC(=O)[C@@H](N)C(C)C)C(=O)N[C@@H](Cc3ccccc3)C(=O)N[C@@H](CCCNC(=N)N)C(=O)N[C@@H](CC(C)C)C(=O)N3CCC[C@H]3C(=O)N2)C(=O)CCSC[C@@H](C(=O)N[C@@H](CCCNC(=N)N)C(N)=O)NC(=O)[C@H](CCCNC(=N)N)NC1=O

Target: T1, human β-FXIIa (HFXIIAB; Molecular Innovations) (human, UniProt P00748 354-362; P00748 373-615)
T1 chain 1: NGPLSCGQR
T1 chain 2: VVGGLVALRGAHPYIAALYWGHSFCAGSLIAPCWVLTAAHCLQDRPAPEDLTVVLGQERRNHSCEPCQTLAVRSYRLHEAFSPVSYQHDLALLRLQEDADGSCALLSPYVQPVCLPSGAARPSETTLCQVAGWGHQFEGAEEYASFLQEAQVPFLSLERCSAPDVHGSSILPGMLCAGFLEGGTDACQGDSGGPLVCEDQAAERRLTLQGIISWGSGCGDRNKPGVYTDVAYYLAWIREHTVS
Assay: enzyme inhibition

| Binder | Ki [nM] |
| --- | --- |
| RC[Bta]RLPCRQLRCRW-NH2 (linker 2-7-12 via TATA) [FXII618 variant with F in position three replaced by 3-benzothienylalanine] | 23 |
| B1 | 70 |
| B2 | 82 |
| B3 | 2010 |
| B4 | 413 |
| B5 | 336 |

Target: T1, human β-FXIIa (HFXIIAB; Molecular …)
Assay: enzyme inhibition
Remark: another data set of the same source

| Binder | Ki [nM] |
| --- | --- |
| RCF[hArg]LPCRQLRCRW-NH2 (linker 2-7-12 via TATA) [peptide 39 (peptide 2, Arg4 to homoarginine)] | 181 |
| RCF[hLys]LPCRQLRCRW-NH2 (linker 2-7-12 via TATA) [peptide 38 (peptide 2, Arg4 to homolysine)] | 131 |
| H-RCF[Agb]LPCRQLRCRW-NH2 (linker 2-7-12 via TATA) [peptide 40 (peptide 2, Arg4 to norarginine)] | 397 |
| B6 | 976 |

Target: T1, human β-FXIIa (HFXIIAB; Molecular …)
Assay: enzyme inhibition
Remark: another data set of the same source

| Binder | Ki [nM] |
| --- | --- |
| RCFRLPCRQARCR [Alanine (30), Leu10] | 2660 |
| RCFRLPCRQMRCR [Methionine (27), Leu10] | 364 |
| B7 | 199 |
| RCFRLPCRQVRCR [Valine (25), Leu10] | 830 |

Target: T1, human β-FXIIa (HFXIIAB; Molecular …)
Assay: enzyme inhibition
Remark: another data set of the same source

| Binder | Ki [nM] |
| --- | --- |
| B8 | 177 |
| B9 | 18.5 |
| B10 | 231 |
| B11 | 287 |

— patent US20180118786A1 (published 2018)
